B1: H2C (peptide)
chain: FHENFYDWFVRQVSKK
B2: S257 (peptide)
peptide: RWPNFYGYFESLLTHFS

Legend:
[1] = biological target: soluble human insulin mini-receptor (mIR) (human, UniProt P06213-2 28-746, limits assumed); test: FP vs FITC-RP9 on mIR
[2] = biological target: T1, human insulin receptor (HIR) (human, UniProt P06213-2 28-1370, limits assumed); test: 125I-insulin competition, solubilized HIR
T1 construct: detergent-solubilized receptor
T1 sequence (P06213 other isoform, or with tags, fused parts or gaps limits assumed): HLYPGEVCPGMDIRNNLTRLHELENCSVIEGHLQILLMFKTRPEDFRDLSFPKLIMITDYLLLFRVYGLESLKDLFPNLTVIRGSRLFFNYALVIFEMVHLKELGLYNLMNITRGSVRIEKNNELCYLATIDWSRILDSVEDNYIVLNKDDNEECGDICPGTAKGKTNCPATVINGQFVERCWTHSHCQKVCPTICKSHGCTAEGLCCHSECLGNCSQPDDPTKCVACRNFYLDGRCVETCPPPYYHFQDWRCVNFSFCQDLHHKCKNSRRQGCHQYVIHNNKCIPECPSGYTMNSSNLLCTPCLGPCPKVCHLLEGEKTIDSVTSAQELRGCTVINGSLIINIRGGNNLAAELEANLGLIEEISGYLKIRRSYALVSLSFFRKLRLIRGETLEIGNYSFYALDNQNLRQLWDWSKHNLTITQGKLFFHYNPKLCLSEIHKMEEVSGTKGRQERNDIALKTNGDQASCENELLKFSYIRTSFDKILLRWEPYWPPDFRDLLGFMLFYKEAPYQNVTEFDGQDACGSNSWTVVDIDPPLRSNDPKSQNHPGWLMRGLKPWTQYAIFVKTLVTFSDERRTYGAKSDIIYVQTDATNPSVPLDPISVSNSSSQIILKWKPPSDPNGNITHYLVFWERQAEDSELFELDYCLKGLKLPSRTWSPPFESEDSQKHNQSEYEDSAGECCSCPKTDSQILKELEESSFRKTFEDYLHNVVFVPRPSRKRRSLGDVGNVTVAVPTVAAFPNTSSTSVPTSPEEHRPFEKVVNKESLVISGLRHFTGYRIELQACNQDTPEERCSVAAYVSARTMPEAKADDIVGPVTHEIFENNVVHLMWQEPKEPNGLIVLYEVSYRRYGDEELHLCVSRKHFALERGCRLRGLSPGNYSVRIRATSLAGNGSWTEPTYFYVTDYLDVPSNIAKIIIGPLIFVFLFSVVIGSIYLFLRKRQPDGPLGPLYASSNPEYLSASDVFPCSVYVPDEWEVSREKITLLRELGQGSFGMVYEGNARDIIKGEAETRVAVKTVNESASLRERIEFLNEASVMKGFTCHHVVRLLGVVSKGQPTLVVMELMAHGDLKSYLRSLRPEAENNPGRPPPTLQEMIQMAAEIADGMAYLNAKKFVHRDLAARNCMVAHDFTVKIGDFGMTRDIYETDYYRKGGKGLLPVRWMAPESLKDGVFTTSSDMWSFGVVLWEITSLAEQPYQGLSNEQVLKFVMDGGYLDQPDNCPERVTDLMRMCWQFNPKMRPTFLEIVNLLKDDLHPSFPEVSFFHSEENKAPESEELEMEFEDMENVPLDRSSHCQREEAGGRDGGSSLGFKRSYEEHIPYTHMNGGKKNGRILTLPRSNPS

| Binder | IC50 [1] | Kd [2] |
| --- | --- | --- |
| B1 | 770 nM | – |
| B2 | – | 1400 nM |

Source: patent US20070004634A1 (published 2007)
